Test results as given in the domain aggregation screens of Martell et al. (2025).

Assay: soluble fraction after stress (log2 fold change); higher = more stays soluble; pooled small domains, quantitative proteomics
Conditions: stress: 50 degC
How it was run: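 Pooled custom libraries of small protein domains were measured in a high-throughput format, with quantitative proteomics as the read-out. Each library was stressed at 50°C. Aggregation propensity is given as the base-two logarithm of the fold change in how much of each protein stays soluble after the stress. Higher values mean a larger share of the protein remains in solution.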

| Sequence | soluble fraction (log2) |
| --- | --- |
| HMGTGQTNEKLAVLTNIQKTQEQILLTLGAKNPLVNLKQYRETLAKILSLSGYKNSNEFFLDPM | -0.0851 |
| HMSARRHAVKHLDANQLQTRVARMLSEFGLTAKVSKDPNSNALIIDGAPEAQRIAAQLITTIDKE | 0.091 |
| HMNVLLGISELSHATGVTPAQLRYWVSQGYIKNYGSNKKNKFSLETVFMVRSIKIFQNQGYTLSASAKRAA | 0.0163 |
| HMSGRIWTDNYGRTIEADVIKVNINRTVLLEFTDKKTKTVSFDTFISKDIQYLEYLLTRRNRGKL | -3.9 |
| HMVAEPVYGKVTEGPLNVRSAPSTDSEKVDSFSTGKVLTILETLDGWYKVEEGYVSADYVTIIDAAEAASS | 0.00408 |
| HMDIDASEVRGIISQYINEPDGRVSYILETIQKKYRYLPEEAIRIVAQELEVPLTQLFGVATFYAAFSL | 0.0443 |
| HMDEKPPHEALSNREFQVLQLLAQGRSVGQIAQQLTLSANTISTYRARIFDKLGLHNPADLFSYAARHRLT | -0.273 |
| HMAVSGRMMVYEYIRQQMREGSLLPGSVLDLPAISHKLGISNTPLRDSLIRLEAEGYLTIYPRSKVVIN | -2.87 |
| HMDAMMQRLERLKELASSADGSKDYLILGPLRRDLAKLMALEDPKLRQGAEELDRKILAILS | -0.208 |
| HMSSFIEAIKQSGTDSLDVIMKNGRVYRYVGIDADRLGYLLEPHQQKLSLEESIGRFYIDYIKGIYEAIE | -1.57 |
| HMPAQPEPYNNLARLYSAQGKLDQAASLLRAGLYTDPAYRALFDNLTRIYAEQAARSLSAALD | -0.907 |
| HMELNEMEAWSLVSKALRNGTYGAVEEFSRLPPTVQEAVGNPDNLRNWATSDYKAIETVIQSNFIKTY | -0.12 |
| HMRLTIAQLSEKTGVPERTIRYYIDRGLVPSAHGERRGAWYDTVHLEPLLRIQQWREAGLSLEAIADLLR | -1.19 |
| HMQRYVVDENLKLDKKDINHIINVMRLNVNDQIKLINNGTIYDAIITKIEKNNVLYEIIKKEESK | 0.0274 |
| HMGTSMDPPVIIVSDGKLIQKGLEVSGLKKQWLYDLIDRKHMKISDIFLLTADKTGKYNLIKRS | 0.0904 |
| HMAVLEGPAGKLGIVRFEANRSFTGMGHERFSSADQAFGTKPAAVVASRLFATGQVAGVHVYGNIITVELA | 0.528 |
| HMEEDGAPLESREVLLDQAISQGKGTQWTIATETKLEDHIVSGAYSTDGKVTLAVFSPLGDGKYEFSSSVN | 0.0751 |
| HMVITPESVKEQVLAIISKSPAQGFNYKQISKRLNINDPSERKMVSDILRELSESGTIEEINKGKYRAKV | -0.0556 |
| HMGAPLAVGDSVRVVVSGPRAFVYTAPNGALSGAVRNGAAFTVLELSPDNTWARIGSGEWIKVEFLATG | 0.0428 |
| HMTGLRETIPAALDGERLDRVVALLGDVSRSRASAALEAERVTLDGEVVTLRSHRVREGEELTVAGFE | 0.405 |
| HMAVVEVATTTATEYKVEKGHHFKVGDFVMFKTGAKSYAITAIDTTSPIFDKITVGTTLGEAIPVGGTLM | -1.38 |
| HMTSVMAWRLITPIPQHGIIRSSQVQLQKHAPNSLKFLDVDSSPVGKQVKHGIAAGHWLSKDDFTE | -0.937 |
| HMPNQIKQIAVNTASVSDIATIPGISFDFAKEIWEFRILRQKIGSLSELQKIEGMTASKYALIELYLHI | -3.37 |

| Sequence | soluble fraction (log2) |
| --- | --- |
| HMQGLIGEQKAIQIALSRVPGAKPEHVRELKLDYDDGMQLYEGEIFYNFREYEFEINAVTGEVVGWEI | -1.6 |
| HMVRVSELAIEPRLVVEETATGFVGAVVRYANGLIELEDRHGAVRTFPLGPGYLVDGRPVSLVKPT | -0.371 |
| HMGRNSTPKEPLKKFEVSPITEKEVRILDGRFGPYITDGATNVTVPKTITIEEITFERALDMLAEKAAKGP | 0.0252 |
| HMEQGDTQQEIREKILNLLADGERHMITELKNIRTDQPIDDDKIVGKTLKTLLDEEEVYMDGSYIQLNG | 0.259 |
| HMEFDYIVKVPDVRNKKIEDAGKILIDLGLKYTTESDYITQDLKVIDQFPLPGTEVSKGSIIDIYLEEDFK | 0.0944 |
| HMTQFSLTTEEINVLKKSYSEFTDSDKELFNKILEKYNKFKNESSNDIAFEAKILEKLQEIENFYE | -0.126 |
| HMDHKSSYWSVKEANLFPELLKQFGSQWSLISDKLGTKSTTMVRNYYQRNAAQLGWKSVVEEADFKRNA | -0.436 |
| HMGDERDRLLLARGKRIYQELIGSDRENVAAALREFEAVLAVNNRRAIHVMRQRLAELFGVYEEFLNEEFL | -2.77 |
| HMQPVEHLPTTDPLTTSAASEHERYEKVRWWLEEMQRTYETGDEVRAERIRLSLIEQMYKWEGE | -0.185 |
| HMGELTSILVATKQIEPGETLSSSNTQVKSWISDLIPEGAITNPESVMGRTVSSVIGVGMPVVSLHLR | 0.0954 |
| HMEQMSPYPNPSKGKIQFHNQEPMDIKVFNSLGQIVFEQRILSRAILDLSRLSPGQYIVQAGEQKNIWIK | -0.699 |
| HMATYTPYDKQGAKLWRVTAYLGMDSVTGKQRNMKKGGFKTKKEAQLYYNQVKLDFENGTLDQ | -1.22 |
| HMQNNIEFTVLEEDAQKRLDVLLSEKTALSRSASASLIEEGGVLVNGRKEPKKYKPVRGEIITAILPE | -0.0707 |
| HMAPVLTATVNTTSGKLNMRAAASATSAKLTSIPRGATVTVLEKGTTWSRISYGGYTGYVMTQYLKFD | -0.167 |
| HMKANIGDQVFTQLKDQIINGEWRPGDRIPSEAQLIQLFGVSRGTVRQAVQKLAGEGLIVTRHGEGSFVQG | 0.096 |
| HMQSRRTPASLVERVRQLNGQYQDKEIAELLNREGIKTAHGNEFNAKRIEMIRRHNGISKHSAQ | 0.174 |
| HMSRSKLNRLDKIKKMLIAQTGISIKEFSASLNVSEITIRRDLNLLEEQGFIRLVNGVAIYRM | -1.55 |
| HMKIKAKYTTDFGIRIYAPKPGKNYWRISYVDLDGKLRDTTATSEKTALDKSAEIEVLLRNN | -1.89 |
| HMVDKNDLTAIDGIGPFLEKKLNDVGVFTYADIAGWDAAKIEEITQQISFFEGRIEKDDWVGQAQKLIDDQ | -0.157 |
| HMLGYQALASAFRSKVEAGIWPIGEAIPSEARLSKEYGVAVGTIRQAIAELAEEGILIKRHGKSTMVSSG | -0.873 |
| HMADPVTPQDLIRWSEALAGIARTGLGFTQSLYEQERFEEVLAVAADMRVAAGSSYNPDDLVHEWMKSVG | -0.292 |
| HMNYHDTLSYLMDAFGGADNLQKLLGVGPSALSNYRRREHLPLNQARKLSNIAPEFGFNLDPYTLKISVID | -1.57 |
| HMTPQGALDYSRNAKYLRDQVTAINYLKQARLSLNTTDANYRQTLEQINQAIAKHNQALQQAGVQSQQLAT | 0.0556 |

| Sequence | soluble fraction (log2) |
| --- | --- |
| HMSYQSYDKVVGDTFFEANLKAESKFGKGNFEIISTRRVKHPIYLGFGHKELVELTIGIHDP | -0.308 |
| HMPSTKDGIKEFLSSGAMKGIGRKTASAIVSRFGIDTLKIIEQEPQRLTEVSGIGKKTAQRIAEAFGKH | -0.103 |
| HMEHQLLHMEKTIFEEIADDYPQLNHTKIRNVLAAFLFTNDDVFKRIADLSGGERGRVSLAKLMLSDA | -0.188 |
| HMNQIDEATAATITTLNFLNTNSEFKIPVGDTATRPGTPAIGMMRFNSENDKAEIYVADFDGDGNPGWINL | -0.189 |
| HMTAFAGLTPRERDLLELIAQGRDNAQIAATLGVSDKTVRNHITHIFAKLEVETRAQAIVLARNAGFGRA | -0.356 |
| HMTREAILDTAEELLQRRGYNAFSYHHIAVQLGIRNAAIHYHFPAKEDLGIELVSRFRIRLAE | -0.146 |
| HMIPDPEKVMFDGGIRLLTQAGITEGKARSILGKWKRDHETERIIAALGAAQREGAIEPVSFIERVLRN | -0.0153 |
| HMVLRPDDVEDSLWREWVSHRKAKRAAVTEGVLKTFRQEATKASFTLADAMRKSIDRGWTGFEAEWVARET | -0.074 |
| HMSQPALSYAFAKAQGVIVTALGDVAEVARRKGSQPQALAEVRRIAGRPLALREVDDAAFDRLLQDHYARS | -0.243 |
| HMGPDALSIGRRVRQVRTARGMTLDELAAAVSRAPSQLSMIETGKREPKLSLLQAIARALGTTIDALLT | -0.176 |
| HMVSYTLPTLHTGKNWYVDFTAYDPAEQKMKRKKYMLDGISKITERRKRAVDIIATVTARLRSGWNPWA | -2.7 |
| HMPNSIKAPAYLHNIARIYDHVLIDVEKASSAYEKLIKKYPNHPLSINAKLYLENAFNRSDEELLNMIKEN | -0.798 |
| HMSAPRRGETTAASLNLRAGPATDADILAQLPERTPLRVLQEDGEWLRVETHGNEGFVHRQFVAIPGDEP | 0.218 |
| HMNNTVLSSVKSINMFLDANGGDAGQAFRIYNNTNPDSNPTESTYIFKVAEDGNTFVKGYLNLNGTTL | 0.014 |
| HMDIRLMPGTVLTREYQGIEHRVTVAQDGQYEFEGRRYPSLSMIAREITGTRWSGPLFFGVK | -0.657 |
| HMVDIGQSIRVELIREGKDSHQAVGYLRDGSMVVVNHGRKLIGSTVEVEITSIVPSSAGKVIFAEYLE | -0.378 |
| HMFLTPLEEARLVIEEIVIPKNIAVDLSPRPSALRKQQHELIAHYQLKSFSVGNERTKRLRILPKVI | -0.114 |
| HMDSITEADLLRWAHALSGIARTGLGFTESRYERERYEEVLAVAADILAASSRSHDRAALVDEWLKMVGV | -1.8 |
| HMGKKIVERRNTILNMVNKYGTLDFPQLRDAFPDVSDVTLRKDLQYLDSTKQAIRTHGGIKSI | 0.0534 |
| HMYMFSGQRLKSLRKEKKMSQEKLGSLLNISKVAVSNWENAKSFPTMDNLNELAKVLEVEPHYF | -1.16 |
| HMGVPTEQQSLIGKSGIAATDLRPSGKVEIDGKRYDAVSNYAGFIAKGTPISVVRYETGQIYVE | 0.0415 |
| HMSSVTGMERFLSSGAVKGIGKTMAARIVEHFGTETMTVLESFPERLAEVPGIGAKKAEAIGQSYSEISD | 0.174 |
